± gives the standard error. For some assays here: Fewer inactive variants are shown than the library holds.
B1: glmS ribozyme (parent)
chain: AUAAAAGCGCCAGAACUACAGAAAUGUAGUUGACGAGGAGGAGGUUUAUCGAAUUUUCGGCGGAUGCCUCCAAA

Tests used:
Settings in all cases: with glucosamine-6-phosphate
[1] = variants of: B1; test: kcat; higher = faster cleavage; RNA array
How it was run: (§1)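 Over ~14 h at 37 °C, tiles were imaged as glucosamine-6-phosphate (40 μM to 10 mM) in HEPES/KCl/Mg(OAc)2 buffer flowed across sequenced MiSeq chips. The chips carried barcoded ribozyme variants transcribed in situ by E. coli RNA polymerase and tracked with a hybridised Cy3 probe. After normalisation to baseline and to non-cleaving reference variants, one- or two-exponential decay fits of per-tile medians gave kobs. kcat and KM followed from weighted Michaelis–Menten fits across concentrations.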

[2] = variants of: B1; test: KM; higher = weaker cofactor use; RNA array
How it was run: as §1

[3] = variants of: B1; test: self-cleavage kobs at 40 uM GlcN6P; higher = faster cleavage; RNA array
How it was run: as §1

[4] = variants of: B1; test: self-cleavage kobs at 160 uM GlcN6P; higher = faster cleavage; RNA array
How it was run: as §1

[5] = variants of: B1; test: self-cleavage kobs at 640 uM GlcN6P; higher = faster cleavage; RNA array
How it was run: as §1

[6] = variants of: B1; test: self-cleavage kobs at 2500 uM GlcN6P; higher = faster cleavage; RNA array
How it was run: as §1

[7] = variants of: B1; test: self-cleavage kobs at 10000 uM GlcN6P; higher = faster cleavage; RNA array
How it was run: as §1

Variant | kcat [1] [s⁻¹] | KM [2] [mM] | self-cleavage kobs at 40 uM GlcN6P [3] [s⁻¹] | self-cleavage kobs at 160 uM GlcN6P [4] [s⁻¹] | self-cleavage kobs at 640 uM GlcN6P [5] [s⁻¹] | self-cleavage kobs at 2500 uM GlcN6P [6] [s⁻¹] | self-cleavage kobs at 10000 uM GlcN6P [7] [s⁻¹]
U45A U65C | 0.00412 ± 0.0005 | 1.77 ± 0.29 | 9.95e-05 ± 1.1e-05 | 0.000318 ± 6.3e-05 | 0.000994 ± 0.00014 | 0.00204 ± 0.00054 | 0.00374 ± 0.00047
A12G A53U | 0.00085 ± 8.4e-05 | 4.34 ± 0.62 | – | 2.34e-05 ± 7.6e-06 | 0.000112 ± 1e-05 | 0.000319 ± 3e-05 | 0.00058 ± 6.7e-05
U65G | 0.00543 ± 0.0002 | 3.67 ± 0.19 | 5.85e-05 ± 1.3e-06 | 0.000217 ± 7.2e-06 | 0.000813 ± 1.9e-05 | 0.00237 ± 8.3e-05 | 0.00393 ± 7.2e-05
U30C G66A | 0.000173 ± 3.1e-05 | 1.86 ± 0.84 | – | – | 3.92e-05 ± 1e-05 | 0.000153 ± 3.4e-05 | 0.00014 ± 1.9e-05
U47A A52G | 0.00213 ± 0.00047 | 5.08 ± 1.6 | 3.28e-05 ± 1.5e-05 | 8.42e-05 ± 1.9e-05 | 0.000221 ± 3.3e-05 | 0.000661 ± 9.9e-05 | 0.00146 ± 0.0002
C50U A64C | < 1e-05 | – | – | < 1e-05 | < 1e-05 | – | < 1e-05
A15G G29U | 0.00177 ± 0.00076 | – | 6.06e-05 ± 1.7e-05 | 0.000104 ± 4.4e-05 | 0.000265 ± 0.0001 | 0.00118 ± 0.00039 | 0.00145 ± 0.00039
A14G G60A | 8.13e-05 ± 1.1e-05 | 3.02 ± 1.3 | – | – | – | 4.34e-05 ± 1.9e-05 | 6.17e-05 ± 1.2e-05
G41U | 0.00376 ± 0.0013 | – | 0.000171 ± 1.9e-05 | 0.000391 ± 6.3e-05 | 0.00102 ± 9.3e-05 | 0.00263 ± 0.00015 | –
A52G C67U | 0.000905 ± 0.00016 | 2.37 ± 0.74 | 2.66e-05 ± 1.3e-05 | 7.98e-05 ± 1.7e-05 | 0.000166 ± 2.3e-05 | 0.000524 ± 8.6e-05 | 0.000728 ± 8.4e-05
U31A U45C | 0.00168 ± 0.00049 | 3.38 ± 1.6 | – | – | 0.000288 ± 8.9e-05 | 0.000998 ± 0.00023 | 0.00116 ± 0.00024
A48C A53U | 0.000244 ± 1.5e-05 | 2.41 ± 0.32 | – | – | 4.84e-05 ± 1.1e-05 | 0.000131 ± 2e-05 | 0.000191 ± 3e-05
A15G U46A | 0.00453 ± 0.00029 | 1.89 ± 0.17 | 9.83e-05 ± 1.5e-05 | 0.0003 ± 9.6e-05 | 0.00114 ± 0.00035 | 0.00258 ± 0.00041 | 0.00382 ± 0.00063
A12G U45G | 0.000591 ± 1.8e-05 | 5.26 ± 0.3 | – | – | 6.36e-05 ± 1.3e-05 | 0.000197 ± 4.2e-05 | 0.000386 ± 3.9e-05
U49G C68G | 3.3e-05 ± 5.3e-06 | – | – | – | – | 3.47e-05 ± 1.3e-05 | –
A33U A42G | 0.000108 ± 7.3e-06 | 2 ± 0.35 | – | – | – | 6.02e-05 ± 1.3e-05 | 8.89e-05 ± 3e-05
A48G A53C | 5.9e-05 ± 9.7e-06 | – | – | – | – | 7.97e-05 ± 1.7e-05 | 5.4e-05 ± 7.2e-06
G13U U56G | 0.000921 ± 0.00016 | 2.72 ± 0.82 | – | 7.12e-05 ± 2e-05 | 0.000172 ± 2.5e-05 | 0.000372 ± 6.6e-05 | 0.000774 ± 9.3e-05
A39G A53G | 0.0916 ± 0.024 | 2.77 ± 0.83 | 0.0015 ± 0.00022 | 0.00433 ± 0.00068 | 0.0194 ± 0.0037 | 0.0404 ± 0.015 | 0.0725 ± 0.019
A12G G40A | 0.000633 ± 0.00014 | 4.04 ± 1.3 | – | 1.6e-05 ± 7.3e-06 | 9.61e-05 ± 8.9e-06 | 0.000218 ± 2.3e-05 | 0.000486 ± 6.3e-05
A39U | 0.0425 ± 0.0086 | 3.04 ± 0.72 | 0.000604 ± 1e-05 | 0.00176 ± 7.4e-05 | 0.00683 ± 0.00016 | 0.019 ± 0.00075 | 0.0347 ± 0.0012
C16A C68U | 9.12e-05 ± 2.9e-06 | 0.878 ± 0.11 | – | – | 3.93e-05 ± 7.5e-06 | 6.55e-05 ± 6.5e-06 | 8.53e-05 ± 7.2e-06
G13U U46A | 3.16e-05 ± 1.5e-06 | 0.479 ± 0.2 | – | – | – | 2.81e-05 ± 1.2e-05 | 2.96e-05 ± 9.4e-06
U31A U65A | 0.00266 ± 0.00015 | 3.82 ± 0.35 | 2.41e-05 ± 1.1e-05 | 9.46e-05 ± 3.5e-05 | 0.000399 ± 5.4e-05 | 0.00107 ± 0.00022 | 0.00191 ± 0.00022
G35U G37C G60U | < 1e-05 | – | < 1e-05 | – | < 1e-05 | – | –
A12G A39G | 0.0017 ± 0.00036 | 4.96 ± 1.5 | – | 3.92e-05 ± 9.9e-06 | 0.00022 ± 2.9e-05 | 0.000622 ± 9e-05 | 0.00109 ± 0.00014
G62C C68A | 1.29e-05 ± 3.6e-06 | – | – | – | – | – | –
G37A G59U C68G | < 1e-05 | – | – | – | – | – | –
U56G | 0.04 ± 0.003 | 3.17 ± 0.31 | 0.000527 ± 1.8e-05 | 0.00186 ± 0.00015 | 0.00628 ± 0.00028 | 0.0168 ± 0.00087 | 0.0313 ± 0.0012

Reference: the supplement of paper PMC7125110
